Broadly, the Kd is the concentration at which binding is half-saturated. A low value points to tighter binding. For orientation: EC50 means the concentration at which the effect is half-maximal.

From patent US12319739 (F STAR DELTA, dated 2025) come the findings set out here.

Test [1] concerns the target T1, hMSLN-His-Avi (human, UniProt Q13421 296-598, single biotin on the Avi tag in the biotinylated form).
T1 construct: Monomeric; also called human MSLN-His-Avi; hMSLN-Avi-His
The test is described as follows: SPR, mAb2 captured on Protein G, hMSLN-His-Avi in solution. The method, then: (§1) The association time was 5 min and the dissociation time was 5 min. Running buffer was HBS-EP (GE Healthcare BR100188). Flow cells were regenerated by injecting Glycine-HCl pH2.1 at a flow rate of 30 μl/min for 15 seconds. The data was analysed as described in Example 7.1.
(In general: Surface plasmon resonance follows binding to a sensor surface in real time, without labels.)

The target of test [2] is T1, hMSLN-His-Avi. Nature of the test: SPR, hMSLN-His-Avi immobilised ~100 RU, mAb2 injected. The protocol:
(§2) 7.1 Binding of CD137/MSLN mAb2 to Human MSLN Under Avid Conditions—Antigen Capture Method Binding of all mAb^2 to MSLN immobilised on a BIAcore chip was tested to determine the binding affinity to human MSLN under avid conditions, where a high concentration of immobilised antigen is available to allow the antibody to bind avidly. […] The association time was 5 min and the dissociation time was 10 min. Running buffer was HBS-EP (GE Healthcare BR100188). Flow cells were regenerated by injecting Glycine-HCl pH1.5 at a flow rate of 30 μl/min for 30 seconds. Data were analysed by double referencing against a flow cell which was intentionally left blank (no antigen coating). The binding kinetics were fitted with a 1:1 Langmuir model to generate binding association (k_a) and dissociation (k_d) rates. Equilibrium binding constants (K_D) were calculated by dividing the dissociation rate by the association rate for each sample. Data analysis was performed with BiaEvaluation software version 3.2.

Test [3] concerns the target T2, human CD137 on primary human CD8+ T cells (human, UniProt Q07011 24-255). Nature of the test: cell-based or functional assay.
For test [4], the target named is T1, hMSLN-His-Avi. Nature of the test: SPR, hMSLN-His-Avi in solution.
Test [5] has as its target T2, human CD137 on primary human CD8+ T …. The test is described as follows: cell-based or functional assay. This is another data set of the same source.
The target in test [6] is T1, hMSLN-His-Avi. The test is described as follows: SPR, hMSLN-His-Avi immobilised.
For test [7], the target named is T1, hMSLN-His-Avi. Nature of the test: ratio of SPR KDs.
Test [8] deals with T1, hMSLN-His-Avi. Nature of the test: ratio of SPR KDs. The method, then:
as §2, §1
The source holds these as a separate data set.

Test [9] addresses T1, hMSLN-His-Avi. Nature of the test: ELISA, hMSLN-His-Avi coated 1 µg/ml. (In an ELISA, binding on a coated surface is turned into a signal by an enzyme label.)
The target of test [10] is T1, hMSLN-His-Avi. The test is described as follows: SPR, hMSLN-His-Avi immobilised at 50 RU.
Test [11] concerns the target T1, hMSLN-His-Avi. The test is described as follows: SPR, hMSLN-His-Avi immobilised at 100 RU.
The target in test [12] is human Thrombomodulin (human, UniProt P07204 19-515, limits assumed). Nature of the test: ELISA, antigen coated 1 µg/ml. The protocol:
(§3) Binding of the anti-MSLN mAbs, tested at a concentration range of 0.02 to 1000 nM (3-fold dilutions) was detected using anti-human Fab-HRP (Sigma, A0293).

In test [13] the target is T3, human EpCAM-hFc (human, UniProt P16422 24-265, limits assumed).
T3 sequence (looked up): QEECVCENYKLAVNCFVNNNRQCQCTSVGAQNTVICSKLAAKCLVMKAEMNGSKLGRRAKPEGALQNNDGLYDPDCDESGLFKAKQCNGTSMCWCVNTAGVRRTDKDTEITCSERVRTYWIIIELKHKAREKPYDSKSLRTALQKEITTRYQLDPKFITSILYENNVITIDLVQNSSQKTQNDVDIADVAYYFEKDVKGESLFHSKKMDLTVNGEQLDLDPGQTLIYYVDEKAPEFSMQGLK
The test is described as follows: ELISA, antigen coated 1 µg/ml. The protocol: as §3

The target in test [14] is T4, human E-Cadherin (human, UniProt P12830 155-707).
T4 sequence (looked up): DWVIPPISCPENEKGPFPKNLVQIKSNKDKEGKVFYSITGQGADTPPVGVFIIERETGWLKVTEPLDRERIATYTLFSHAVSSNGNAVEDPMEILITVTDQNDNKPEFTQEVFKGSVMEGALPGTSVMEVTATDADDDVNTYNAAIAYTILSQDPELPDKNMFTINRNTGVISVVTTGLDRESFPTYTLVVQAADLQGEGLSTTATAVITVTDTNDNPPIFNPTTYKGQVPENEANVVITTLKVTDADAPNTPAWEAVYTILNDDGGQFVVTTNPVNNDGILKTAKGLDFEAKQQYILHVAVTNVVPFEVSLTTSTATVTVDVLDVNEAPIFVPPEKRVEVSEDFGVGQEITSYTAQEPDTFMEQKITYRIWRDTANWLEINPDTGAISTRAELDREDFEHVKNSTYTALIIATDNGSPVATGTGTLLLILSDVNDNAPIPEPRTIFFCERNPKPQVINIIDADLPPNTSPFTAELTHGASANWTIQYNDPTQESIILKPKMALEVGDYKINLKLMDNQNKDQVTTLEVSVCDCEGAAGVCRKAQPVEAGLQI
Nature of the test: ELISA, antigen coated 1 µg/ml. The method, then:
as §3

The target of test [15] is T5, human CEACAM-5-His-Fc (human, UniProt P06731 35-685).
T5 sequence (looked up): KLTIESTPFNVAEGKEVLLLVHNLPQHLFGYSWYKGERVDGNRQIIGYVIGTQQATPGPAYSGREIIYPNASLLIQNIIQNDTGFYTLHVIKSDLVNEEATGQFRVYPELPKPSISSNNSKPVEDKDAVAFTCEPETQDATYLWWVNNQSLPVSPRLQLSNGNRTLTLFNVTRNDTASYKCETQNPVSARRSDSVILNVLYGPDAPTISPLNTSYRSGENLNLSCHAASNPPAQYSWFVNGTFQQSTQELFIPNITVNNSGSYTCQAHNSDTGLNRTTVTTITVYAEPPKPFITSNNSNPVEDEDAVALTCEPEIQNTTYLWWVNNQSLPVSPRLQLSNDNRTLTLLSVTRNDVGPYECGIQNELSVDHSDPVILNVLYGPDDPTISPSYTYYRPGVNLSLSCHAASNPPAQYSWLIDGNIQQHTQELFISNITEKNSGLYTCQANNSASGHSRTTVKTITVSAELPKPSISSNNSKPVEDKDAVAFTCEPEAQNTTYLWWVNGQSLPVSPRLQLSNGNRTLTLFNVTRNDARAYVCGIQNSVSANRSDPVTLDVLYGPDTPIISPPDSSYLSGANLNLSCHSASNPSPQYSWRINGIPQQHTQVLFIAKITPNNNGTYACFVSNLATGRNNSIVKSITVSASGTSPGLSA
Nature of the test: ELISA, antigen coated 1 µg/ml. The method, then: as §3

T1 sequence (Q13421 other isoform, or with tags, fused parts or gaps): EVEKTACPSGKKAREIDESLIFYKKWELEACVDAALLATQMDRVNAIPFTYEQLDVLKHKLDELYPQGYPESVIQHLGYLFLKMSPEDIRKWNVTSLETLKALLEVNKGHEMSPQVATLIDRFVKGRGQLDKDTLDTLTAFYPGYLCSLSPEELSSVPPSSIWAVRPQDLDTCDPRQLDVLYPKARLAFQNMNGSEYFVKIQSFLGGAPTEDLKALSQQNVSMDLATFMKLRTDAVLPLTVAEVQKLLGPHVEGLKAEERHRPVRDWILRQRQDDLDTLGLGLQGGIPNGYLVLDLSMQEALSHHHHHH
T2 sequence (Q07011 24-255): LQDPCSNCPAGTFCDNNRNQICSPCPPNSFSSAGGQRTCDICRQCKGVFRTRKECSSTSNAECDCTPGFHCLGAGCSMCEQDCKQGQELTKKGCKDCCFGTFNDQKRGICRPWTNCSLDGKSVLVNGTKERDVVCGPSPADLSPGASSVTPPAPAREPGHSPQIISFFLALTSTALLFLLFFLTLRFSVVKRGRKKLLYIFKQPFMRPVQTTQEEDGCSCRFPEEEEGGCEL
Chain of human Thrombomodulin (P07204 19-515 limits assumed): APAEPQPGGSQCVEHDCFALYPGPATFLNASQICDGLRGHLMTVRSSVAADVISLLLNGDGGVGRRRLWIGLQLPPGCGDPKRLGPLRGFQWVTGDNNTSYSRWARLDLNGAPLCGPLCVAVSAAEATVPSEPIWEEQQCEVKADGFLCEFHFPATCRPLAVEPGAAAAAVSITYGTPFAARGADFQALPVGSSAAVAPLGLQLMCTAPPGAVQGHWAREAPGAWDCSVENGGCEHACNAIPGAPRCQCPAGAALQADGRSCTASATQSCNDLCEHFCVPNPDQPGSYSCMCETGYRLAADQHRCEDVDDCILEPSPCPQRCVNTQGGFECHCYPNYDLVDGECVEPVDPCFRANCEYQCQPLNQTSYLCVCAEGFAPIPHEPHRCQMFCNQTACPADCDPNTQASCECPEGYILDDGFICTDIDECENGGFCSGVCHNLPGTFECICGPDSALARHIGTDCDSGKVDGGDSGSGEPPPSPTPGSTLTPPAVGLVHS

B1: FS22-172-003-AA/FS28-256-273 (bispecific antibody, human IgG1, kappa, L234A L235A, V domains shown)
VH: EVQLLESGGGLVQPGGSLRLSCAASGFTFTHTYMSWVRQAPGKGLEWVSSISPTYSTTNYADSVKGRFTISRDNNKNTLYLQMNSLRAEDTAVYYCARYNAYHAALDYWGQGTLVTVSS
VL: EIVLTQSPGTLSLSPGERATLSCRASQSVSSSYLAWYQQKPGQAPRLLIYGASSRATGIPDRFSGSGSGTDFTLTISRLEPEDFAVYYCQQTVPYPYTFGQGTKVEIKR
notes: IgG1 mAb^2 with LALA
Consider B1, for which the Kd in test [1] amounted to 7.4 nM; in [2] it was 6 nM; in test [4], 7.4 nM; in test [6], 6 nM. Moreover, the “fold change of IL-2 EC50 with 20 nM sMSLN against none, NCI-H226 co-culture” value in [3] was over 4 fold. The “IL-2 release EC50, NCI-H226 co-culture, +2 nM sMSLN” value in test [5] is 0.0616 nM. In addition, the “IL-2 release EC50, NCI-H226 co-culture, +20 nM sMSLN” value in test [5] came out at 0.366 nM. The “IL-2 release EC50, NCI-H226 co-culture, no sMSLN” value in test [5] is 0.0791 nM. The “ratio of KD in solution/immobilised” value in test [7] worked out at 1.2. Besides, the “KD ratio in solution/immobilised human MSLN” value in [8] was found to be 1.2.

B2: FS28-256 (mAb in G1-AA format) (antibody, human IgG1, V domains shown)
VH: EVQLLESGGGLVQPGGSLRLSCAASGFTFTNTYMSWVRQAPGKGLEWVSNISPTYSTTNYADSVKGRFTISRDNSKNTLYLQMNSLRAEDTAVYYCARYNSYQGGLDYWGQGTLVTVSS
VL: EIVLTQSPGTLSLSPGERATLSCRASQSVSSSYLAWYQQKPGQAPRLLIYGASSRATGIPDRFSGSGSGTDFTLTISRLEPEDFAVYYCQQSYYYPITFGQGTKVEIK
In test [9], B2 returned an EC50 of about 0.5 nM. Also, the maximum binding signal in test [9] amounted to 3. Moreover, the values for the Kd in [10] and in test [11] were 26.2 nM and 23.2 nM, respectively. The binding result in test [12], in [13], in [14] and in test [15] was “no binding (tested: 1000 nM)” throughout.

B3: FS28-185 (mAb in G1-AA format) (antibody, human IgG1, V domains shown)
VH: EVQLLESGGGLVQPGGSLRLSCAASGFTFTTSAMSWVRQAPGKGLEWVSRINPYEGETNYADSVKGRFTISRDNSKNTLYLQMNSLRAEDTAVYYCARGWSIATYYKSAMDYWGQGTLVTVSS
VL: EIVLTQSPGTLSLSPGERATLSCRASQSVSSSYLAWYQQKPGQAPRLLIYGASSRATGIPDRFSGSGSGTDFTLTISRLEPEDFAVYYCQQSSYSAPVTFGQGTKVEIKR
In [9], B3 showed an EC50 of about 0.5 nM. Further, in test [9], the maximum binding signal came out at 3. The Kd in [10] came out at 37 nM; in [11], 29.6 nM. For the same molecule, the binding result in test [12], in test [13], in [14] and in test [15] was “no binding (tested: 1000 nM)” each time.
